Measurements from patent US5451411A, “Methods and compositions for the oral delivery of therapeutic agents” (University of Washington, priority 1993, dated 1995).

Key:
[1] = system: cells of epithelial origin, including human and rodent derived intestinal cells; conditions: cited from earlier work
[2] = system: mouse anti-TGF-β1 monoclonal antibody, 1D11; experiment: ELISA measured binding activity (immunoreactivity) of TGF-β1; conditions: solution without alginate, up to 0.14% w/v additive
Experimental: The ability of released TGF-β1 from both untreated and acid treated beads (as described above) to be recognized (bound) by a monoclonal antibody was assayed by ELISA as follows. An enzyme linked immunosorbent assay (ELISA) was used to quantitate the amount of immunoreactive TGF-β1 released from the untreated (PBS) and acid treated (HCl) alginate beads. The ELISA was based on the ability of a mouse anti-TGF-β1 monoclonal antibody, 1D11 (Bristol-Myers Squibb, Seattle, WA), to bind to the TGF-β1 molecule. When the 1D11 antibody was coated on 96-well immunoassay plates it captured TGF-β1 from the applied sample and standard solutions. Captured TGF-β1 was then bound by biotinylated 1D11 antibody which in turn was bound by a horseradish peroxidase/avidin D conjugate (Vector Labs cat #A-2004). A color reaction occurred by adding a chromophore/substrate solution of 3,3',5,5'-tetramethylbenzidine in CPB containing hydrogen peroxide. The reaction was stopped with the addition of 1 N sulfuric acid and the A450 was determined by a plate reader. Concentrations of the unknown samples were quantified relative to a TGF-β1 standard curve run on the same plate.
The immunoreactivity of TGF-β1 in solution in the presence of anionic amino acids, polyanions and polycations was studied using the ELISA procedure described in Example 2. To 1 mg/mL solutions of TGF-β1 in 5 mM HCl was added from 0 to 0.14%(w/v) of glutamic acid, aspartic acid, poly-L-aspartic acid (PLAA, Mw=13 kDa), sodium carboxymethyl cellulose (Na CMC, high viscosity), or polyacrylic acid (PAA, 2, 90 or 750 kDa). The reactivity of the TGF-β1 was then determined by the ELISA procedure, as described in Example 2.
Next, the ability of the additives to […] was investigated. Alginate solutions were prepared in accordance with the procedure of Example 1, incorporating 50 μg of TGF-β1, 0-0.15% (w/v) of sodium alginate and 0.1-1.0 mg (up to 0.125% w/v) of PAA (750 kDa), PLAA (13 kDa), NaCMC high viscosity or glutamic acid. The immunoreactivity of TGF-β1 was determined by ELISA as described in Example 2.
Alginate beads were prepared according to the procedure of Example 1 incorporating 50 μg TGF-β1 and 0.1-1.0 mg of additives. […] In addition, Poly-L-Lysine (PLL;123 kDa) was incorporated as a potential polycationic competitor. The additives were incorporated at an alginate:additive w/w ratio of from 75:10 to 75:1 as indicated below in Table 3.
To further assess the effect of amount of PAA incorporation on immunoreactivity of released TGF-β1, alginate beads were prepared by incubating TGF-β1 and PAA (90 kDa) for either 5 or 60 minutes (see FIG. 7) in w/w ratios of 75:1, 75:6 and 75:10, followed by dilution, addition of alginate, and bead formation in 1% CaCl2. The beads were acid treated in 0.1 N HCl at 37° C. for 30 minutes and then incubated at 37° C. in PBS, pH 7.4.

gastrointestinal tract = conditions: sequential chemotherapeutic protocols; cited from earlier work
[3] = assay type: physicochemical
Experimental: Beads prepared in accordance with the procedure of Example 1 and containing 50 μg of ^125 I-TGF-β1 in 3.75-7.5 mg (original weight of alginate) were transferred to 15.0 mL polypropylene tubes containing 13.0 mL of PBS or of 0.1 N HCl at 37° C. In some cases, 1% BSA was added to the release media. The polypropylene tubes were gently shaken using a orbital shaker (200 rotations/minutes). At selected times, 100 μL aliquots were taken and counted for radioactivity. Care was taken so that aliquots contained no beads or bead fragments. The cumulative ^125 I-TGF-β1 released from the beads was calculated after correcting for volume changes. After 24 hours, the beads in 0.1 N HCl were transferred to PBS.
Alginate beads containing TGF-β1 and 90 kDa PAA (75:10 w/w in alginate:PAA) were prepared following the procedure of Example 1, and were acid treated for 30 minutes at 37° C. in 0.1 N HCl, as described in Example 2. The beads were then placed in PBS, pH 7.4, and the immunoreactivity of released TGF-β1 was determined by ^125 I radiolabel and ELISA, as described in Example 2. In addition, a growth inhibitory assay (GIA) was used to determine the bioactivity of the TGF-β1. The GIA measures the ability of TGF-β1 to inhibit the growth of mink lung epithelial cells (ATCC #CCL64) (T. Ikedaet al., "Human Transforming Growth Factor Type β2: Production By a Prostatic Adenocarcinoma Cell Line, Purification and Initial Characterization," Biochemistry 26:2406-2410 (1987)). The activity of the growth factor was determined by the inhibitory response of the cells to different concentrations of TGF-β1. Cell viability was based on the enzymatic cleavage by metabolically active cells of a tetrazolium salt into an orange/red formazan product. Prior to the assay cells were trypsinized and plated in a 96-well flat bottomed plate (Costar) at a concentration of 1000 cells/well. After allowing the cells to attach, samples containing the TGF-β1 and a reference standard were diluted to concentrations ranging from 1000 to 1.95 pg/ml and added to the wells. The cells were incubated for four days after which time a 100 μL solution containing 25 μg of sodium 3"-[1-(phenylamino)-carbonyl]-3,4-tetrazolium-bis(4-methoxy-6-nitro) benzene sulfonic acid hydrate (Diagnostic Chemicals, Ltd.) and 5 mM phenazine methosulfate (Aldrich) in media was added to each well. The cells were then incubated for 7 hours and the plates read on a microplate reader at an absorbance of 450 nm with a 630 nm reference filter. The specific activity of a sample was calculated relative to the reference material.

[4] = system: mouse anti-Oncostatin-M antibody, 11R2; experiment: ELISA of immunoreactive Oncostatin-M released from alginate beads; assay type: binding; conditions: PBS
Experimental: Following the procedure of Example 1, alginate beads were prepared from 800 μl of an aqueous solution containing 25 μg of Oncostatin-M (site source) and 3750 μg of sodium alginate (Sigma, Low Viscosity). To a portion of the solution was added 300 μg of PAA (Jannsen, 90 kDa) prior to bead formation. Samples of the beads, both with and without added PAA, were subject to acid treatment by incubating the beads in 0.1 N HCl at 37° C. for 30 minutes, as described in Example 2. The beads were then placed in PBS, and the percentage amount of immunoreactive Oncostatin-M was determined by ELISA assay following the procedure of Example 2 using a mouse anti-Oncostatin-M antibody, 11R2 (Bristol-Myers Squibb, Seattle, WA) as the capture antibody and biotinylated 1R10 mouse anti-Oncostatin-M antibody (Bristol-Myers Squibb, Seattle, WA) as the probe, followed by horseradish peroxidase/avidin D. The results are shown in FIG. 8, in which (.quadrature.) represents acid treated beads containing PAA, represents bead containing PAA which were not acid treated, represents beads without PAA which were acid treated, and represents beads without PAA which were not acid treated.

[5] = system: mouse antiamphiregulin monoclonal antibody, 6R1C1; experiment: ELISA of immunoreactive Amphiregulin released from alginate beads; assay type: binding; conditions: PBS
Experimental: The procedure of Example 10 was repeated substituting 25 μg of Amphiregulin for the Oncostatin-M of Example 11 and using a mouse antiamphiregulin monoclonal antibody, 6R1C1 (Bristol-Myers Squibb, Seattle, WA) as the capture antibody, followed by a goat anti-mouse horseradish peroxidase probe (Southern Biotech). The results are shown in FIG. 9 in which the symbols have the meanings of FIG. 8.

## TGF-β
[1]
  Growth inhibition: inhibit the growth of many cells of epithelial origin

## N[C@@H](CC(=O)O)C(=O)O [aspartic acid, L-aspartic acid, reference compound]
[2]
  Interference of additive with ELISA measured binding activity of TGF-β1: interfered to a lesser extent

## CO[C@@]12[C@H](COC(N)=O)C3=C(C(=O)C(C)=C(N)C3=O)N1C[C@@H]1N[C@@H]12 [mitomycinC]
Gastrointestinal tract
  Gastrointestinal toxic alterations: surface and glandular epithelial atypia, immaturity and necrosis

## ^125 I-TGF-β1: TGF-β1 radioiodinated by a modified chloramine-T method
[3]; 0.1 N HCl, 24 hours, 37° C.
  125I-TGF-β1 released in 0.1 N HCl: essentially no
[3]; PBS, even after 72 hours
  Further 125I-TGF-β1 release: no further ^125 I-TGF-β1 was released
[3]; PBS, pH 7.4, 37° C.
  Lag period before release: 4 h
[3]; PBS, pH 7.4, 37° C., after 20 hours, no acid treatment, no PAA
  Cumulative 125I-TGF-β1 released (plateau): 81%
[3]; transferred to PBS after 24 hours in 0.1 N HCl, in 2.5 hours
  125I-TGF-β1 released after transfer from 0.1 N HCl to PBS: 100%

## O=c1[nH]c(=O)n([C@H]2C[C@H](O)[C@@H](CO)O2)cc1F [floxuridine]
Gastrointestinal tract
  Gastrointestinal toxic alterations: surface and glandular epithelial atypia, immaturity and necrosis

## Nc1ccn([C@@H]2O[C@H](CO)[C@@H](O)[C@@H]2O)c(=O)n1 [cytosine arabinoside]
Gastrointestinal tract
  Gastrointestinal toxic alterations: surface and glandular epithelial atypia, immaturity and necrosis

## N[C@@H](CCC(=O)O)C(=O)O [glutamic acid, L-glutamic acid, reference compound]
[2]
  Interference of additive with ELISA measured binding activity of TGF-β1: interfered to a lesser extent

B1: Oncostatin-M: 25 μg of Oncostatin-M encapsulated in alginate beads with or without PAA (protein, UniProt P13725 26-221, looked up)
Oncostatin-M: AAIGSCSKEYRVLLGQLQKQTDLMQDTSRLLDPYIRIQGLDVPKLREHCRERPGAFPSEETLRGLGRRGFLQTLNATLGCVLHRLADLEQRLPKAQDLERSGLNIEDLEKLQMARPNILGLRNNIYCMAQLLDNSDTAEPTKAGRGASQPPTPTPASDAFQRKLEGCRFLHGYHRFMHSVGRVFSKWGESPNRSRR
modifications: alginate bead encapsulation
notes: 25 μg of Oncostatin-M encapsulated in alginate beads with or without PAA
[4]; PAA 90 kDa
  Immunoreactive Oncostatin-M released, acid treated beads containing PAA: 85%
  Immunoreactive Oncostatin-M released, non acid treated beads containing PAA: 38%
[4]
  Immunoreactive Oncostatin-M released, "non acid treated beads with PAA" (second value): 20%
  Immunoreactive Oncostatin-M released, acid treated beads without PAA: 18%

B2: Amphiregulin: 25 μg of Amphiregulin encapsulated in alginate beads with or without PAA (protein, UniProt P15514 101-187, looked up)
Amphiregulin: SVRVEQVVKPPQNKTESENTSDKPKRKKKGGKNGKNRRNRKKKNPCNAEFQNFCIHGECKYIEHLEAVTCKCQQEYFGERCGEKSMK
modifications: encapsulated in alginate beads
notes: 25 μg of Amphiregulin encapsulated in alginate beads with or without PAA
[5]
  Immunoreactive Amphiregulin released, acid treated beads containing PAA: 67%
  Immunoreactive Amphiregulin released, acid treated beads without PAA: 31%
  Immunoreactive Amphiregulin released, non acid treated beads containing PAA: 52%
  Immunoreactive Amphiregulin released, non acid treated beads without PAA: 22%
